# *1 amine or outer side, *2 acyl side, *3 side chain or, on linkers, in order; H or OH if unused. Where no end group is shown, it is not given here. Side-chain parts run from the residue outwards. [ ]: non-standard residue; d: D form. The star is where a group is joined. C18 diacid = O=C(O)CCCCCCCCCCCCCCCCC(=O)*; C16 diacid = O=C(O)CCCCCCCCCCCCCCC(=O)*; γGlu = O=C(O)[C@H](CCC(=O)[*:2])N[*:1]; Pentanoyl = CCCCC(=O)*; AEEA = NCCOCCOCC(=O)O; Aib = CC(C)(N)C(=O)O; Propionyl = CCC(=O)*; Butyryl = CCCC(=O)*
# T1: CRF1R receptor (UniProt P34998 24-415, limits assumed)
# T1 sequence (looked up): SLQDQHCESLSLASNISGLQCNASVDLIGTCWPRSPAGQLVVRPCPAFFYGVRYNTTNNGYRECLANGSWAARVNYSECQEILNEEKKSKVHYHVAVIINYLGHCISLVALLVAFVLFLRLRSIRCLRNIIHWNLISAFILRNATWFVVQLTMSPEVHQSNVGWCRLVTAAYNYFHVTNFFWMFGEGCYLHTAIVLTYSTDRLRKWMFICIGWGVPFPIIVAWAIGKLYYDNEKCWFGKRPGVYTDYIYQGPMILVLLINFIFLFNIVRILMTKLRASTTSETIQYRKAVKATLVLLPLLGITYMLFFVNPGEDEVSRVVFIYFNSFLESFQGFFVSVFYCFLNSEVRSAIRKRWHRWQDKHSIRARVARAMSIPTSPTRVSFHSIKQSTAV
# B1: SEQ ID NO 93 (peptide)
# peptide: VLSLD[dV]PIKLK([AEEA-AEEA-γGlu-C18 diacid])KILLEQEKQKKQREQAETNKQILAQV-NH2
# modifications: N-terminus assumed
# SMILES: CC[C@H](C)[C@H](NC(=O)[C@H](CCC(N)=O)NC(=O)[C@H](CCCCN)NC(=O)[C@H](CC(N)=O)NC(=O)[C@@H](NC(=O)[C@H](CCC(=O)O)NC(=O)[C@H](C)NC(=O)[C@H](CCC(N)=O)NC(=O)[C@H](CCC(=O)O)NC(=O)[C@H](CCCNC(=N)N)NC(=O)[C@H](CCC(N)=O)NC(=O)[C@H](CCCCN)NC(=O)[C@H](CCCCN)NC(=O)[C@H](CCC(N)=O)NC(=O)[C@H](CCCCN)NC(=O)[C@H](CCC(=O)O)NC(=O)[C@H](CCC(N)=O)NC(=O)[C@H](CCC(=O)O)NC(=O)[C@H](CC(C)C)NC(=O)[C@H](CC(C)C)NC(=O)[C@@H](NC(=O)[C@H](CCCCN)NC(=O)[C@H](CCCCNC(=O)COCCOCCNC(=O)COCCOCCNC(=O)CC[C@H](NC(=O)CCCCCCCCCCCCCCCCC(=O)O)C(=O)O)NC(=O)[C@H](CC(C)C)NC(=O)[C@H](CCCCN)NC(=O)[C@@H](NC(=O)[C@@H]1CCCN1C(=O)[C@H](NC(=O)[C@H](CC(=O)O)NC(=O)[C@H](CC(C)C)NC(=O)[C@H](CO)NC(=O)[C@H](CC(C)C)NC(=O)[C@@H](N)C(C)C)C(C)C)[C@@H](C)CC)[C@@H](C)CC)[C@@H](C)O)C(=O)N[C@@H](CC(C)C)C(=O)N[C@@H](C)C(=O)N[C@@H](CCC(N)=O)C(=O)N[C@H](C(N)=O)C(C)C
# B2: SEQ ID NO 33 (peptide)
# peptide: Ac-VLSLD[dV]PIKLK([γGlu-C16 diacid])KILLEQEKQKKQREQAETNKQILAQV-NH2
# SMILES: CC[C@H](C)[C@H](NC(=O)[C@H](CCC(N)=O)NC(=O)[C@H](CCCCN)NC(=O)[C@H](CC(N)=O)NC(=O)[C@@H](NC(=O)[C@H](CCC(=O)O)NC(=O)[C@H](C)NC(=O)[C@H](CCC(N)=O)NC(=O)[C@H](CCC(=O)O)NC(=O)[C@H](CCCNC(=N)N)NC(=O)[C@H](CCC(N)=O)NC(=O)[C@H](CCCCN)NC(=O)[C@H](CCCCN)NC(=O)[C@H](CCC(N)=O)NC(=O)[C@H](CCCCN)NC(=O)[C@H](CCC(=O)O)NC(=O)[C@H](CCC(N)=O)NC(=O)[C@H](CCC(=O)O)NC(=O)[C@H](CC(C)C)NC(=O)[C@H](CC(C)C)NC(=O)[C@@H](NC(=O)[C@H](CCCCN)NC(=O)[C@H](CCCCNC(=O)CC[C@H](NC(=O)CCCCCCCCCCCCCCC(=O)O)C(=O)O)NC(=O)[C@H](CC(C)C)NC(=O)[C@H](CCCCN)NC(=O)[C@@H](NC(=O)[C@@H]1CCCN1C(=O)[C@H](NC(=O)[C@H](CC(=O)O)NC(=O)[C@H](CC(C)C)NC(=O)[C@H](CO)NC(=O)[C@H](CC(C)C)NC(=O)[C@@H](NC(C)=O)C(C)C)C(C)C)[C@@H](C)CC)[C@@H](C)CC)[C@@H](C)O)C(=O)N[C@@H](CC(C)C)C(=O)N[C@@H](C)C(=O)N[C@@H](CCC(N)=O)C(=O)N[C@H](C(N)=O)C(C)C
# B3: SEQ ID NO 25 (peptide)
# peptide: IVLSLDVPIKLK([AEEA-AEEA-γGlu-γGlu-C18 diacid])Q[Aib]LLKQERQKKQREQAEKN[Aib]QILEQV-NH2
# modifications: N-terminus assumed
# SMILES: CC[C@H](C)[C@H](N)C(=O)N[C@H](C(=O)N[C@@H](CC(C)C)C(=O)N[C@@H](CO)C(=O)N[C@@H](CC(C)C)C(=O)N[C@@H](CC(=O)O)C(=O)N[C@H](C(=O)N1CCC[C@H]1C(=O)N[C@H](C(=O)N[C@@H](CCCCN)C(=O)N[C@@H](CC(C)C)C(=O)N[C@@H](CCCCNC(=O)COCCOCCNC(=O)COCCOCCNC(=O)CC[C@H](NC(=O)CC[C@H](NC(=O)CCCCCCCCCCCCCCCCC(=O)O)C(=O)O)C(=O)O)C(=O)N[C@@H](CCC(N)=O)C(=O)NC(C)(C)C(=O)N[C@@H](CC(C)C)C(=O)N[C@@H](CC(C)C)C(=O)N[C@@H](CCCCN)C(=O)N[C@@H](CCC(N)=O)C(=O)N[C@@H](CCC(=O)O)C(=O)N[C@@H](CCCNC(=N)N)C(=O)N[C@@H](CCC(N)=O)C(=O)N[C@@H](CCCCN)C(=O)N[C@@H](CCCCN)C(=O)N[C@@H](CCC(N)=O)C(=O)N[C@@H](CCCNC(=N)N)C(=O)N[C@@H](CCC(=O)O)C(=O)N[C@@H](CCC(N)=O)C(=O)N[C@@H](C)C(=O)N[C@@H](CCC(=O)O)C(=O)N[C@@H](CCCCN)C(=O)N[C@@H](CC(N)=O)C(=O)NC(C)(C)C(=O)N[C@@H](CCC(N)=O)C(=O)N[C@H](C(=O)N[C@@H](CC(C)C)C(=O)N[C@@H](CCC(=O)O)C(=O)N[C@@H](CCC(N)=O)C(=O)N[C@H](C(N)=O)C(C)C)[C@@H](C)CC)[C@@H](C)CC)C(C)C)C(C)C
# B4: SEQ ID NO 94 (peptide)
# peptide: Propionyl-VLSLDVPIKLK([AEEA-AEEA-γGlu-C18 diacid])KILLEQEKQKKQREQAETNKQILAQV-NH2
# SMILES: CCC(=O)N[C@H](C(=O)N[C@@H](CC(C)C)C(=O)N[C@@H](CO)C(=O)N[C@@H](CC(C)C)C(=O)N[C@@H](CC(=O)O)C(=O)N[C@H](C(=O)N1CCC[C@H]1C(=O)N[C@H](C(=O)N[C@@H](CCCCN)C(=O)N[C@@H](CC(C)C)C(=O)N[C@@H](CCCCNC(=O)COCCOCCNC(=O)COCCOCCNC(=O)CC[C@H](NC(=O)CCCCCCCCCCCCCCCCC(=O)O)C(=O)O)C(=O)N[C@@H](CCCCN)C(=O)N[C@H](C(=O)N[C@@H](CC(C)C)C(=O)N[C@@H](CC(C)C)C(=O)N[C@@H](CCC(=O)O)C(=O)N[C@@H](CCC(N)=O)C(=O)N[C@@H](CCC(=O)O)C(=O)N[C@@H](CCCCN)C(=O)N[C@@H](CCC(N)=O)C(=O)N[C@@H](CCCCN)C(=O)N[C@@H](CCCCN)C(=O)N[C@@H](CCC(N)=O)C(=O)N[C@@H](CCCNC(=N)N)C(=O)N[C@@H](CCC(=O)O)C(=O)N[C@@H](CCC(N)=O)C(=O)N[C@@H](C)C(=O)N[C@@H](CCC(=O)O)C(=O)N[C@H](C(=O)N[C@@H](CC(N)=O)C(=O)N[C@@H](CCCCN)C(=O)N[C@@H](CCC(N)=O)C(=O)N[C@H](C(=O)N[C@@H](CC(C)C)C(=O)N[C@@H](C)C(=O)N[C@@H](CCC(N)=O)C(=O)N[C@H](C(N)=O)C(C)C)[C@@H](C)CC)[C@@H](C)O)[C@@H](C)CC)[C@@H](C)CC)C(C)C)C(C)C
# B5: SEQ ID NO 95 (peptide)
# peptide: Butyryl-VLSLDVPIKLK([AEEA-AEEA-γGlu-C18 diacid])KILLEQEKQKKQREQAETNKQILAQV-NH2
# SMILES: CCCC(=O)N[C@H](C(=O)N[C@@H](CC(C)C)C(=O)N[C@@H](CO)C(=O)N[C@@H](CC(C)C)C(=O)N[C@@H](CC(=O)O)C(=O)N[C@H](C(=O)N1CCC[C@H]1C(=O)N[C@H](C(=O)N[C@@H](CCCCN)C(=O)N[C@@H](CC(C)C)C(=O)N[C@@H](CCCCNC(=O)COCCOCCNC(=O)COCCOCCNC(=O)CC[C@H](NC(=O)CCCCCCCCCCCCCCCCC(=O)O)C(=O)O)C(=O)N[C@@H](CCCCN)C(=O)N[C@H](C(=O)N[C@@H](CC(C)C)C(=O)N[C@@H](CC(C)C)C(=O)N[C@@H](CCC(=O)O)C(=O)N[C@@H](CCC(N)=O)C(=O)N[C@@H](CCC(=O)O)C(=O)N[C@@H](CCCCN)C(=O)N[C@@H](CCC(N)=O)C(=O)N[C@@H](CCCCN)C(=O)N[C@@H](CCCCN)C(=O)N[C@@H](CCC(N)=O)C(=O)N[C@@H](CCCNC(=N)N)C(=O)N[C@@H](CCC(=O)O)C(=O)N[C@@H](CCC(N)=O)C(=O)N[C@@H](C)C(=O)N[C@@H](CCC(=O)O)C(=O)N[C@H](C(=O)N[C@@H](CC(N)=O)C(=O)N[C@@H](CCCCN)C(=O)N[C@@H](CCC(N)=O)C(=O)N[C@H](C(=O)N[C@@H](CC(C)C)C(=O)N[C@@H](C)C(=O)N[C@@H](CCC(N)=O)C(=O)N[C@H](C(N)=O)C(C)C)[C@@H](C)CC)[C@@H](C)O)[C@@H](C)CC)[C@@H](C)CC)C(C)C)C(C)C
# B6: SEQ ID NO 96 (peptide)
# peptide: Pentanoyl-VLSLDVPIKLK([AEEA-AEEA-γGlu-C18 diacid])KILLEQEKQKKQREQAETNKQILAQV-NH2
# SMILES: CCCCC(=O)N[C@H](C(=O)N[C@@H](CC(C)C)C(=O)N[C@@H](CO)C(=O)N[C@@H](CC(C)C)C(=O)N[C@@H](CC(=O)O)C(=O)N[C@H](C(=O)N1CCC[C@H]1C(=O)N[C@H](C(=O)N[C@@H](CCCCN)C(=O)N[C@@H](CC(C)C)C(=O)N[C@@H](CCCCNC(=O)COCCOCCNC(=O)COCCOCCNC(=O)CC[C@H](NC(=O)CCCCCCCCCCCCCCCCC(=O)O)C(=O)O)C(=O)N[C@@H](CCCCN)C(=O)N[C@H](C(=O)N[C@@H](CC(C)C)C(=O)N[C@@H](CC(C)C)C(=O)N[C@@H](CCC(=O)O)C(=O)N[C@@H](CCC(N)=O)C(=O)N[C@@H](CCC(=O)O)C(=O)N[C@@H](CCCCN)C(=O)N[C@@H](CCC(N)=O)C(=O)N[C@@H](CCCCN)C(=O)N[C@@H](CCCCN)C(=O)N[C@@H](CCC(N)=O)C(=O)N[C@@H](CCCNC(=N)N)C(=O)N[C@@H](CCC(=O)O)C(=O)N[C@@H](CCC(N)=O)C(=O)N[C@@H](C)C(=O)N[C@@H](CCC(=O)O)C(=O)N[C@H](C(=O)N[C@@H](CC(N)=O)C(=O)N[C@@H](CCCCN)C(=O)N[C@@H](CCC(N)=O)C(=O)N[C@H](C(=O)N[C@@H](CC(C)C)C(=O)N[C@@H](C)C(=O)N[C@@H](CCC(N)=O)C(=O)N[C@H](C(N)=O)C(C)C)[C@@H](C)CC)[C@@H](C)O)[C@@H](C)CC)[C@@H](C)CC)C(C)C)C(C)C
# Assays:
# [1] = molecular target: human corticotropin-releasing factor 2a (CRF2a receptor) (human), Q13324; test: cell-based or functional assay
# human corticotropin-releasing factor 2a (CRF2a receptor) (human), Q13324, sequence (Q13324 20-411): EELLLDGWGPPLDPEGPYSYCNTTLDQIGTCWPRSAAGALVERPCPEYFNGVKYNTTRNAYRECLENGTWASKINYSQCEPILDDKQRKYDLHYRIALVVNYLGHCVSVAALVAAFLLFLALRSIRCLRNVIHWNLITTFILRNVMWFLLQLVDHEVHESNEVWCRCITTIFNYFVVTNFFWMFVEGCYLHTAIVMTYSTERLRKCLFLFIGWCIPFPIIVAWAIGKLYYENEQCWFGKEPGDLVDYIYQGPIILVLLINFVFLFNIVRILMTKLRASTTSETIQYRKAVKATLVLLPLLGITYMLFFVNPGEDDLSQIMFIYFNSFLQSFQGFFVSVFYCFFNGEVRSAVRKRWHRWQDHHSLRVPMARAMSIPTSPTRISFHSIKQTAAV
# CRF1R receptor = molecular target: T1, CRF1R receptor; test: cell-based or functional assay
Binder,EC50 [nM] (cAMP) [1],Emax (% I) (CRF1R receptor) [%],EC50 (CRF1R receptor) [nM]
B1,5.08,6,
B2,0.47,13,
B3,5.02,6,> 250
B4,1.48,0,
B5,0.76,5,
B6,0.49,4,
